Where a chain is given by its changes, count along the chain named. Where two headings read alike, the source gives them in different places.
B1: humanized TES-C21 Fab clone 136 (Fab, V domains shown)
VH: QVQLVQSGAEVMKPGSSVKVSCKASGYTFSMYWLEWVRQAPGHGLEWMGEISPGTFTTNYNEKFKARVTFTADTSTSTAYMELSSLRSEDTAVYYCARFSHFSGSNYDYFDYWGQGTLVTVSS
VL: EIVMTQSPATLSVSPGERATLSCRASQSIGTNIHWYQQKPGQAPRLLIYYASESISGIPARFSGSGSGTEFTLTISSLQSEDFAVYYCQQSDSWPTTFGGGTKVEIK
notes: Retains 5 murine heavy chain framework residues; light chain framework is 100% human; also called Clone ID #136; Humanized clone 136
B2: Anti-IgE CL-5A (antibody, V domains shown)
VH: B1 VH with M31W, S52E, F56E
VL: EIVMTQSPATLSVSPGERATLSCRASQSIGTNIHWYQQKPGQAPRLLIYYASESISGIPARFSGSGSGTEFTLTISSLQSEDFAVYYCQQSWSWPTTFGGGTKVEIKT
notes: ATCC PTA-5679; also called MAb 1(CL-5A); clone 5A
B3: Anti-IgE CL-2C (antibody, V domains shown)
VH: B1 VH with M31W, S52D
VL: B2 VL
notes: ATCC PTA-5678; also called MAb 2 (CL-2C); clone 2C
B4: Anti-IgE CL-5I (antibody, V domains shown)
VH: B1 VH with S52D, T57E
VL: B2 VL
notes: ATCC PTA-5680; also called MAb 3 (CL-5I)
B5: C21 (Fab, V domains shown)
VH: QVQLQQSGAELMKPGASVKISCKTTGYTFSMYWLEWVKQRPGHGLEWVGEISPGTFTTNYNEKFKAKATFTADTSSNTAYLQLSGLTSEDSAVYFCARFSHFSGSNYDYFDYWGQGTSLTVSS
VL: DILLTQSPAILSVSPGERVSFSCRASQSIGTNIHWYQQRTDGSPRLLIKYASESISGIPSRFSGSGSGTEFTLNINSVESEDIADYYCQQSDSWPTTFGGGTKLEIK
notes: also called parent Fab of TES-C21; murine TES-C21 Fab
B6: murine anti-IgE monoclonal antibody TES-C21 (antibody, V domains shown)
VH: B5 VH
VL: B5 VL
notes: Murine parent antibody; also called murine mAb TES-C21; parent TES-C21

Key:
[1] = target: T1, recombinant human IgE, SE44 (human, UniProt P01854-1 1-428); assay: ELISA titration of Fab on plate-coated SE44 (Example 6)
T1 construct: The IgE used as antigen in the ELISA screens (coated, or biotinylated); also called monoclonal human IgE (SE44); biotinylated SE44
Procedure: (§1) The constructed library was subjected to an ELISA screen for improved binding to the recombinant human IgE, SE44. Clones with binding affinity greater than murine TES-C21 Fab were isolated and sequenced. Clone ID #4, 49, 72, 76, and 136 were further characterized.
(§2) Plates were coated with 0.25 ug/mL (for purified Fab 0.1 ug/ml) SE44 in carbonate coating buffer overnight at 4° C. Coating solution was removed and the plates were blocked with 200 uL/well 3% BSA/PBS for 1 hour at 37° C.

human IgE [2] = target: T2, human IgE (human, UniProt P01854-1 1-428); assay: relative to parent TES-C21
T2 construct: it may be SE44; also called intact human IgE; biotinylated IgE

human IgE [3] = target: T2, human IgE; assay: method not stated at the table (Example 10 lists Biacore analysis); target IgE taken from context
human IgE [4] = target: T2, human IgE; assay: soluble receptor assay: inhibition of the binding of biotinylated IgE to plate-coated FcεRI alpha chain (Example 8)
Procedure: A 96 well assay plate suitable for ELISA was coated with 0.05 mL 0.5 μg/mL FcεRI alpha-chain receptor coating buffer (50 mM carbonate/bicarbonate, pH 9.6) for 12 hours at 4-8° C. The wells were aspirated and 25 μL blocking buffer (PBS, 1% BSA, pH 7.2) was added and incubated for 1 hour at 37° C. In a separate assay plate the samples and reference TES-C21 MAbs were titered from 200 to 0.001 μg/mL by 1:4 dilutions with assay buffer (0.5% BSA and 0.05% Tween 20, PBS, pH 7.2) and an equal volume of 100 ng/mL biotinylated IgE was added and the plate incubated for 2-3 hours at 25° C. The FcεRI—coated wells were washed three times with PBS and 0.05% TWEEN 20 and 50 μL from the sample wells were transferred and incubated with agitation for 30 minutes at 25° C. Fifty/μL/well of 1 mg/mL Streptavidin-HRP, diluted 1:2000 in assay buffer, was incubated for 30 minutes with agitation and then the plate was washed as before. Fifty μL/well of TMB substrate was added and color was developed. The reaction was stopped by adding an equal volume of 0.2 M H₂SO₄ and the absorbance measured at 450 nm.

[5] = target: T1, recombinant human IgE, SE44; assay: ELISA titration of Fab on plate-coated SE44 (Example 6); remark: listed apart in the source
Procedure: as §1, §2

T1 sequence (P01854 other isoform, or with tags, fused parts or gaps): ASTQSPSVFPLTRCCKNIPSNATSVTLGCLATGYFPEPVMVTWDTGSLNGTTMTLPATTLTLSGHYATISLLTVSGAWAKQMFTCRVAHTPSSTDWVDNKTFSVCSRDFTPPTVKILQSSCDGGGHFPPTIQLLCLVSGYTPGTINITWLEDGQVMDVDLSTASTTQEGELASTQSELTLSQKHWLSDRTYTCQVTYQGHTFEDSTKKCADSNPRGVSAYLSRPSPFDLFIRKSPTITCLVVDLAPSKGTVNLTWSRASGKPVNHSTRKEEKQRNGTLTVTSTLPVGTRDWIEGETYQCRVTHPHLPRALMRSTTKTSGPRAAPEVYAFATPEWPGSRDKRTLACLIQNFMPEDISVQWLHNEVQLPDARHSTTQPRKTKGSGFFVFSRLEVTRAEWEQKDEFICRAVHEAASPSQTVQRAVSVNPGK
T2 sequence (P01854 other isoform, or with tags, fused parts or gaps): as above

Row | Binder | EC50 (read off the curve) [1] [µg/mL] | Fold Increase in Binding Affinity (human IgE [2]) [fold] | Kd (human IgE [3]) [pM] | IC50 (read off the curve) (human IgE [4]) [µg/mL] | EC50 (read off the curve) [5] [µg/mL]
1 | B1 | ~0.04 | – | – | – | –
2 | B2 | – | 3890 | 0.158 | – | –
3 | B3 | – | 417 | 1.47 | ~0.3 | –
4 | B4 | – | 191 | 3.2 | – | –
5 | B5 | ~0.05 | – | – | – | ~0.05
6 | B6 | – | – | 614 | – | –
